Blank lines part the entries; values can stand above or below the binder they belong to.
How the values were obtained:
recombinant human HGF = biological target: T1, recombinant human HGF (human, UniProt P14210 32-728); test: competition ELISA: antibody co-incubated with 2 nM soluble c-Met Fc on coated HGF (competitor c-Met Fc)
T1 construct: The target there is entered as this HGF; also called hepatocyte growth factor

[1] = biological target: T2, placental growth factor (PLGF) (UniProt P49763-2 21-149, limits assumed); test: ligand-receptor binding competition assay, PlGF binding to VEGFR1
T2 construct: also called P1GF
T2 sequence (looked up): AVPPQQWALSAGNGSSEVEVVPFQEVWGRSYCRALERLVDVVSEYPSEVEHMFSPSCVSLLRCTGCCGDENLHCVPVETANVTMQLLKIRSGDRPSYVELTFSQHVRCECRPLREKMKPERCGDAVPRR

CD-80 [2] = biological target: T3, CD-80 (UniProt P33681 35-288, limits assumed); test: flow cytometry on cells carrying the target, 2 ug/mL; N-terminal VD
T3 construct: whole, on cells; also called B7-1
T3 sequence (looked up): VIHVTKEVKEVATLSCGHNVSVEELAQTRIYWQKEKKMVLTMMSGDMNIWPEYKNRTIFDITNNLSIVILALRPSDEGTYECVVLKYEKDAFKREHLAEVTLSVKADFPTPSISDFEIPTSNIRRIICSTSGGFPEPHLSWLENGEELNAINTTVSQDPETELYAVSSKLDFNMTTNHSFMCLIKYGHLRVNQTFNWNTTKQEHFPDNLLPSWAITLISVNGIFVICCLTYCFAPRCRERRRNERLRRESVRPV

IGF1R = biological target: T4, IGF1R (UniProt P08069 31-1367, limits assumed); test: flow cytometry on cells carrying the target, 2 ug/mL; parent antibody
T4 construct: whole, on cells; also called insulin-like growth factor receptor

CD-20 = biological target: T5, CD-20 (UniProt P11836 1-297, limits assumed); test: as above
T5 construct: whole, on cells
T5 sequence (looked up): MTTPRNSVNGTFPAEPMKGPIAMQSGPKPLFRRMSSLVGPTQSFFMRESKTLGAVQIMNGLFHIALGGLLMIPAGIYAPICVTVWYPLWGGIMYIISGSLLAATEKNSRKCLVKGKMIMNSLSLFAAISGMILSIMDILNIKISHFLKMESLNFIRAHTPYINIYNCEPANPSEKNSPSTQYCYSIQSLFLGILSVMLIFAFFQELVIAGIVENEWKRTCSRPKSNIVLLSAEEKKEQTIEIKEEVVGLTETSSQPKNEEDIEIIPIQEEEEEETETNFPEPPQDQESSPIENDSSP

RON [3] = biological target: T6, RON (UniProt Q04912 25-1400, limits assumed); test: flow cytometry on cells carrying the target, 2 ug/mL; N-terminal VD
T6 construct: whole, on cells; also called macrophage stimulating protein receptor tyrosine kinase; MSP receptor

CD-19 [4] = biological target: T7, CD-19 (human, UniProt P15391 20-556); test: as above
T7 construct: whole, on cells
T7 sequence (looked up): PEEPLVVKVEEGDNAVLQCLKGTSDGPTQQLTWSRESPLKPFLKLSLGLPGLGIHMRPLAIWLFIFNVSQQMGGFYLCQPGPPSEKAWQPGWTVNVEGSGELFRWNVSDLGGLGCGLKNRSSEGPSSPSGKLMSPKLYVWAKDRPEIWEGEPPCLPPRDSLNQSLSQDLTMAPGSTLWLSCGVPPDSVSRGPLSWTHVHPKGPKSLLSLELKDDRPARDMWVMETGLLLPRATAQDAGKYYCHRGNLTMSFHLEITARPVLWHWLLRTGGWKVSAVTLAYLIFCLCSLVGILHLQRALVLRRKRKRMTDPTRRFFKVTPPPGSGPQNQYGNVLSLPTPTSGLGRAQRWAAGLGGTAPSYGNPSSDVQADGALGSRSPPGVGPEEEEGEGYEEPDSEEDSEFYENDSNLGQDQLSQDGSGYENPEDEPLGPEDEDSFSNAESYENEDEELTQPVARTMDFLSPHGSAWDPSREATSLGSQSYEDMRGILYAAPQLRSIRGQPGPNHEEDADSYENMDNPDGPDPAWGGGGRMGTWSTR

RON [5] = biological target: T6, RON; test: flow cytometry on cells carrying the target, 2 ug/mL; parent antibody
[6] = biological target: T8, recombinant His-RON partial ECD (R&D Systems #1947-MS) (UniProt Q04912 25-957, limits assumed); test: competition ELISA: DVD-Ig pre-incubated with 10 nM His-RON partial ECD, then on captured MSP1 (competitor MSP1)
T8 construct: extracellular domain; also called MSP Receptor ECD-His tag; not shown: His tag

CD-80 [7] = biological target: T3, CD-80; test: flow cytometry on cells carrying the target, 2 ug/mL; C-terminal VD
CD-80 [8] = biological target: T3, CD-80; test: flow cytometry on cells carrying the target, 2 ug/mL; parent antibody
CD-19 [9] = biological target: T7, CD-19; test: as above

T1 sequence (P14210 32-728 limits assumed): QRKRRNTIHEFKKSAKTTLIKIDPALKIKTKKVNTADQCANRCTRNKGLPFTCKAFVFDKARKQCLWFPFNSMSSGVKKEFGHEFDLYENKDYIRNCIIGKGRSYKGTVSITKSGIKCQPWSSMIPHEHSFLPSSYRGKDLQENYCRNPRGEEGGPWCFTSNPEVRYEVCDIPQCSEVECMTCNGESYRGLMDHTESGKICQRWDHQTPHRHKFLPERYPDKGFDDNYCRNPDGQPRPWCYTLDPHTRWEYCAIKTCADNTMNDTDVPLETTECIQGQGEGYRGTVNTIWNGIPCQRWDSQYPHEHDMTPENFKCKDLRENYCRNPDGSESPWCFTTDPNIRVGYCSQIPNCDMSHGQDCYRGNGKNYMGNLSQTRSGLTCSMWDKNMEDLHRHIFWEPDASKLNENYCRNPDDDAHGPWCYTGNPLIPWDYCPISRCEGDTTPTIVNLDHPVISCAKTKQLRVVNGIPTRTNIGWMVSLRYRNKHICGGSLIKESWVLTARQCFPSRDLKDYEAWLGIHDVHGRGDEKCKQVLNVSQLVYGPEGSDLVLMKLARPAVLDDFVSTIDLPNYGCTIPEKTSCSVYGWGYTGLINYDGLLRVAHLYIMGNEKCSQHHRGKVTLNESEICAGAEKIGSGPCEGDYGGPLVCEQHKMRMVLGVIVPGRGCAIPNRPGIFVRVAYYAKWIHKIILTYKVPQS

B1: AB012 (anti-HGF (seq. 1) parent antibody) (antibody, human IgG1, kappa, V domains shown)
VH: QVQLVESGGGLVKPGGSLRLSCAASGFTFSDYYMSWIRQAPGKGLEWVSYISSSGSTIYYADSVKGRFTISRDNAKNSLYLQMNSLRAEDTAVYYCARDEYNSGWYVLFDYWGQGTLVTVSS
VL: DIQMTQSPSSVSASVGDRVTITCRASQGISSWLAWYQQKPGKAPNLLIYEASSLQSGVPSRFGGSGSGTDFTLTISSLQPEDFATYYCQQANGFPWTFGQGTKVEIKR
notes: also called AB012VH/AB012VL
IC50 (recombinant human HGF): 0.18 nM

B2: AB047 (antibody, human IgG1, kappa, V domains shown)
VH: QVQLQQSGAELVKPGASVKISCKASGYTFTDYYINWVKLAPGQGLEWIGWIYPGSGNTKYNEKFKGKATLTIDTSSSTAYMQLSSLTSEDTAVYFCVRDSPFFDYWGQGTLLTVSS
VL: DIVLTQSPDSLAVSLGERVTMNCKSSQSLLNSGMRKSFLAWYQQKPGQSPKLLIYWASTRESGVPDRFTGSGSGTDFTLTISSVQAEDVAVYYCKQSYHLFTFGSGTKLEIKR
notes: Parent anti-PlGF antibody; also called AB047VH
IC50 [1]: 3.07 nM

B3: DVD006 (bispecific antibody, human IgG1, kappa)
heavy: not shown
light: ESALTQPPSVSGAPGQKVTISCTGSTSNIGGYDLHWYQQLPGTAPKLLIYDINKRPSGISDRFSGSKSGTAASLAITGLQTEDEADYYCQSYDSSLNAQVFGGGTRLTVLGQPKAAPQIVLSQSPAILSPSPGEKVTMTCRASSSVSYIHWFQQKPGSSPKPWIYATSNLASGVPVRFSGSGSGTSYSLTISRVEAEDAATYYCQQWTSNPPTFGGGTKLEIKRTVAAPSVFIFPPSDEQLKSGTASVVCLLNNFYPREAKVQWKVDNALQSGNSQESVTEQDSKDSTYSLSSTLTLSKADYEKHKVYACEVTHQGLSSPVTKSFNRGEC
notes: DVD-Ig; outer AB007 (CD-80), inner AB001 (CD-20); also called CD-80 and CD-20 DVD-Ig
FACS Geometric Mean N-terminal (CD-80 [2]): 70.7

B8: AB005 (antibody, human IgG1, kappa, V domains shown)
VH: EVQLVQSGGGLVKPGGSLRLSCAASGFTFSSYAMHWVRQAPGKGLEWVAVISYDGSNKYYADSVKGRFTISRDNSKNTLYLQMNSLRAEDTAVYYCARFSGWPNNYYYYGMDVWGQGTTVTVSS
VL: DVVMTQSPLSLPVTPGEPASISCRSSQSLLHSNGFNYVDWYLQKPGQSPHLLIYFGSYRASGVPDRFSGSGSGTDFTLKISRVEAEDVGVYYCMQALQTPPWTFGQGTKVEIRR
notes: Parent antibody
FACS Geometric Mean (RON [5]): 54.5

B10: DVD005 (bispecific antibody, human IgG1, lambda)
heavy: not shown
light: QIVLSQSPAILSPSPGEKVTMTCRASSSVSYIHWFQQKPGSSPKPWIYATSNLASGVPVRFSGSGSGTSYSLTISRVEAEDAATYYCQQWTSNPPTFGGGTKLEIKRTVAAPESALTQPPSVSGAPGQKVTISCTGSTSNIGGYDLHWYQQLPGTAPKLLIYDINKRPSGISDRFSGSKSGTAASLAITGLQTEDEADYYCQSYDSSLNAQVFGGGTRLTVLGQPKAAPSVTLFPPSSEELQANKATLVCLISDFYPGAVTVAWKADSSPVKAGVETTTPSKQSNNKYAASSYLSLTPEQWKSHRSYSCQVTHEGSTVEKTVAPTECS
notes: DVD-Ig; outer AB001 (CD-20), inner AB007 (CD-80); also called CD-20 and CD-80 DVD-Ig
FACS Geometric Mean C-terminal (CD-80 [7]): 6

B11: AB007 (antibody, human IgG1, lambda, V domains shown)
VH: QVQLQESGPGLVKPSETLSLTCAVSGGSISGGYGWGWIRQPPGKGLEWIGSFYSSSGNTYYNPSLKSQVTISTDTSKNQFSLKLNSMTAADTAVYYCVRDRLFSVVGMVYNNWFDVWGPGVLVTVSS
VL: ESALTQPPSVSGAPGQKVTISCTGSTSNIGGYDLHWYQQLPGTAPKLLIYDINKRPSGISDRFSGSKSGTAASLAITGLQTEDEADYYCQSYDSSLNAQVFGGGTRLTVLG
notes: Parent antibody; also called anti-CD-80 parent antibody
FACS Geometric Mean (CD-80 [8]): 25.4

B12: AB006 (antibody, human IgG1, kappa, V domains shown)
VH: QVQLQQSGAELVRPGSSVKISCKASGYAFSSYWMNWVKQRPGQGLEWIGQIWPGDGDTNYNGKFKGKATLTADESSSTAYMQLSSLASEDSAVYFCARRETTTVGRYYYAMDYWGQGTSVTVSS
VL: DILLTQTPASLAVSLGQRATISCKASQSVDYDGDSYLNWYQQIPGQPPKLLIYDASNLVSGIPPRFSGSGSGTDFTLNIHPVEKVDAATYHCQQSTEDPWTFGGGTKLEIKR
notes: Parent antibody
FACS Geometric Mean (CD-19 [9]): 979

Other lines, results leading:

FACS Geometric Mean (IGF1R): 1680
B4: AB011 (antibody, human IgG1, kappa, V domains shown)
VH: EVQLLESGGGLVQPGGSLRLSCTASGFTFSSYAMNWVRQAPGKGLEWVSAISGSGGTTFYADSVKGRFTISRDNSRTTLYLQMNSLRAEDTAVYYCAKDLGWSDSYYYYYGMDVWGQGTTVTVSS
VL: DIQMTQFPSSLSASVGDRVTITCRASQGIRNDLGWYQQKPGKAPKRLIYAASRLHRGVPSRFSGSGSGTEFTLTISSLQPEDFATYYCLQHNSYPCSFGQGTKLEIKR
notes: Parent antibody

FACS Geometric Mean (CD-20): 95.8
B5: AB001 (antibody, human IgG1, kappa, V domains shown)
VH: QVQLQQPGAELVKPGASVKMSCKASGYTFTSYNMHWVKQTPGRGLEWIGAIYPGNGDTSYNQKFKGKATLTADKSSSTAYMQLSSLTSEDSAVYYCARSTYYGGDWYFNVWGAGTTVTVSA
VL: QIVLSQSPAILSPSPGEKVTMTCRASSSVSYIHWFQQKPGSSPKPWIYATSNLASGVPVRFSGSGSGTSYSLTISRVEAEDAATYYCQQWTSNPPTFGGGTKLEIKR
notes: Parent antibody; also called anti-CD-20 parent antibody

FACS Geometric Mean N-terminal (RON [3]): 6.46
B6: DVD033 (bispecific antibody, human IgG1, kappa)
heavy: not shown
light: DVVMTQSPLSLPVTPGEPASISCRSSQSLLHSNGFNYVDWYLQKPGQSPHLLIYFGSYRASGVPDRFSGSGSGTDFTLKISRVEAEDVGVYYCMQALQTPPWTFGQGTKVEIRRTVAAPDIQMTQSPSSVSASVGDRVTITCRASQGISSWLAWYQQKPGKAPNLLIYEASSLQSGVPSRFGGSGSGTDFTLTISSLQPEDFATYYCQQANGFPWTFGQGTKVEIKRTVAAPSVFIFPPSDEQLKSGTASVVCLLNNFYPREAKVQWKVDNALQSGNSQESVTEQDSKDSTYSLSSTLTLSKADYEKHKVYACEVTHQGLSSPVTKSFNRGEC
notes: DVD-Ig; outer AB005 (RON), inner AB012 (HGF); also called RON and HGF DVD-Ig

FACS Geometric Mean N-terminal (CD-19 [4]): 1100
B7: DVD002 (bispecific antibody, human IgG1, kappa)
heavy: not shown
light: DILLTQTPASLAVSLGQRATISCKASQSVDYDGDSYLNWYQQIPGQPPKLLIYDASNLVSGIPPRFSGSGSGTDFTLNIHPVEKVDAATYHCQQSTEDPWTFGGGTKLEIKRTVAAPQIVLSQSPAILSPSPGEKVTMTCRASSSVSYIHWFQQKPGSSPKPWIYATSNLASGVPVRFSGSGSGTSYSLTISRVEAEDAATYYCQQWTSNPPTFGGGTKLEIKRTVAAPSVFIFPPSDEQLKSGTASVVCLLNNFYPREAKVQWKVDNALQSGNSQESVTEQDSKDSTYSLSSTLTLSKADYEKHKVYACEVTHQGLSSPVTKSFNRGEC
notes: DVD-Ig; outer AB006 (CD-19), inner AB001 (CD-20); also called CD-19 and CD-20 DVD-Ig

IC50 [6]: 21.3 nM
B9: DVD047 (VEGF (seq. 1) N-terminal / RON (seq. 1) C-terminal DVD-Ig) (bispecific antibody, human IgG1, kappa)
heavy: not shown
light: DIQMTQSPSSLSASVGDRVTITCSASQDISNYLNWYQQKPGKAPKVLIYFTSSLHSGVPSRFSGSGSGTDFTLTISSLQPEDFATYYCQQYSTVPWTFGQGTKVEIKRTVAAPDVVMTQSPLSLPVTPGEPASISCRSSQSLLHSNGFNYVDWYLQKPGQSPHLLIYFGSYRASGVPDRFSGSGSGTDFTLKISRVEAEDVGVYYCMQALQTPPWTFGQGTKVEIRRTVAAPSVFIFPPSDEQLKSGTASVVCLLNNFYPREAKVQWKVDNALQSGNSQESVTEQDSKDSTYSLSSTLTLSKADYEKHKVYACEVTHQGLSSPVTKSFNRGEC
notes: also called DVD047H/DVD047L

Source: US20100260668A1 (published 2010)
